Article PMC6457497, “The H3K27me3 demethylase REF6 promotes leaf senescence through directly activating major senescence regulatory and functional genes in Arabidopsis”

Columns and labels:
[1] = biological target: T1, GST-REF6C (C2H2 ZnF domain) (Arabidopsis thaliana, UniProt Q9STM3 1239-1360); assay: EMSA; Light Shift EMSA kit binding buffer (composition, salt, pH not stated), poly(dI-dC), 4 ug protein in 20 ul, room temperature 30 min; 5% polyacrylamide gel with; conditions: protein: recombinant; tags: N-terminal GST; label: biotin; blunt
T1 sequence: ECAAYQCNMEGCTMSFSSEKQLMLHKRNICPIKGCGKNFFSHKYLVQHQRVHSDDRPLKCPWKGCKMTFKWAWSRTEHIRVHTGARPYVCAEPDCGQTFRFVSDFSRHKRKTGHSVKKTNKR

[2] = biological target: T1, GST-REF6C (C2H2 ZnF domain); assay: EMSA; competed by excess unlabeled probe; Light Shift EMSA kit binding buffer (composition, salt, pH not stated), poly(dI-dC), 4 ug protein in 20 ul, room temperature 30 min; 5% polyacrylamide gel with; conditions: protein: recombinant; tags: N-terminal GST; label: biotin; blunt

B1: EIN2 WT probe (dsDNA)
DNA 1: AGGAACCATTCTCTGGATAAACCCTAGC
DNA 2: GCTAGGGTTTATCCAGAGAATGGTTCCT
B1: binds [1].

B2: ORE1 WT probe (dsDNA)
DNA 1: TACTCGGATCCTCTGTTTTTACAAGACA
DNA 2: TGTCTTGTAAAAACAGAGGATCCGAGTA
B2: binds [1].

B3: NAP WT probe (dsDNA)
DNA 1: TTTCTCCAAACTCTGTTTTCTCTGTAAA
DNA 2: TTTACAGAGAAAACAGAGTTTGGAGAAA
B3: binds [1].

B4: NYE1 WT probe (dsDNA)
DNA 1: AAAGGAGTCTCTCTGTATTTAGTGGCGT
DNA 2: ACGCCACTAAATACAGAGAGACTCCTTT
B4: binds [2].

B5: NYE2 WT probe (dsDNA)
DNA 1: CAAAAAGGGTCTCTGTATTTAGTTATTA
DNA 2: TAATAACTAAATACAGAGACCCTTTTTG
B5: binds [1].
